Data taken from PMC5802752 (Nature Communications, 2018).

Biological target: T1, factor H-binding protein (fHbp) variant 1.1, recombinant (Neisseria meningitidis serogroup B MC58 …, UniProt Q9JXV4)
T1 construct: not shown: His6, C-terminal, kept
Assay: crystal structure
Settings: both partners purified

B1: human Fab 1A12 (Fab, V domains shown)
VH: EVQLVQSGAELKKPGESLKISCKASGYTFTNYWVVWVRQMPGEGLEWMGSIHPRDSDARYSLSFEGRVTFSVDKSTTTAYLQWSSLKVSDSAIYYCARLSQVSGWSPWVGPWGQGTLVTVSS
VL: DIVMTQSPSSLSASVGDRVTITCRASQSISVSLNWYQQKPGKAPKVLIYAASRLQSGIPSRFSGSGSGSHFTLTISSLQPEDFATYYCQETYSDLMYTFGQGTKVEIK
Question: Does B1 bind?
Answer: Result: binds
